Assay results taken from article doi:10.1101/2022.10.05.511023 (bioRxiv, 2022).

What was measured:
dynamic light scattering = target: the molecule itself; assay: dynamic light scattering
[1] = target: T1, farnesylated GBP1 (guanylate binding protein 1) (human, UniProt P32455 1-592, farnesylated in vitro (C-terminal farnesyl moiety)); assay: absorbance-based light scattering
T1 sequence: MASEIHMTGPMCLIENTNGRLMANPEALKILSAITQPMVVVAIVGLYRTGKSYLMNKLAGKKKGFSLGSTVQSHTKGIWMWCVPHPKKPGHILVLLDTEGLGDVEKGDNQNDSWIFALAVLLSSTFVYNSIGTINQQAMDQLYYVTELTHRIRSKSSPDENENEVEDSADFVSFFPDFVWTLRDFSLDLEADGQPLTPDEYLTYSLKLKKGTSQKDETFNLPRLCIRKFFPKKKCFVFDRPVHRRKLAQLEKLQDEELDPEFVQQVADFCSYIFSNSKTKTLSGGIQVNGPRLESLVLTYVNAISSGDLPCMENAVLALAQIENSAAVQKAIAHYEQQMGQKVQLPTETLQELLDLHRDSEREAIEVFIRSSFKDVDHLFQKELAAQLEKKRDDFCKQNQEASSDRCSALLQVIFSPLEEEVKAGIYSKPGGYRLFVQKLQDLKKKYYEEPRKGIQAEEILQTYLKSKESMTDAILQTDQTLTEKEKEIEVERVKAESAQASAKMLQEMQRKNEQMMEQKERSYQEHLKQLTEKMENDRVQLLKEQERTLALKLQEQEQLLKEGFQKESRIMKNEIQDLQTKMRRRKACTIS

[2] = target: T2, non-geranylgeranylated GBP5 (guanylate binding protein 5) (human), Q96PP8; assay: dynamic light scattering; conditions: remark: other sources report otherwise
T2 chain: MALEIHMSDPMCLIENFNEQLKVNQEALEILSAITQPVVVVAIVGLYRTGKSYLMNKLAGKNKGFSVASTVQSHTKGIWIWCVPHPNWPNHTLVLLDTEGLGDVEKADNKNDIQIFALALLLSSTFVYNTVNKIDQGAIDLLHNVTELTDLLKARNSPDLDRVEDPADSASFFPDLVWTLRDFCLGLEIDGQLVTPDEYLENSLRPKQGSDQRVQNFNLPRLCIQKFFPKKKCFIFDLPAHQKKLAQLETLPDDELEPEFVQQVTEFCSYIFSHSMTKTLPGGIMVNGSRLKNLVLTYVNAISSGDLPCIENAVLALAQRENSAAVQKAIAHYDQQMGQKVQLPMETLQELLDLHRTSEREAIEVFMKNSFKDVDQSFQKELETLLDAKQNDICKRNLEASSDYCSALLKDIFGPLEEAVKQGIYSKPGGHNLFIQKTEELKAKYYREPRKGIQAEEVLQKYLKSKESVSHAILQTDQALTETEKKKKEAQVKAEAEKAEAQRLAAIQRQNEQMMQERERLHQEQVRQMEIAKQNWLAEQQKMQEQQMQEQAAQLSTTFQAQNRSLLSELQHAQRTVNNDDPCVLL

[3] = target: T3, geranylgeranylated GBP5 (guanylate binding protein 5) (human), Q96PP8; assay: dynamic light scattering; conditions: remark: other sources report otherwise
T3 chain: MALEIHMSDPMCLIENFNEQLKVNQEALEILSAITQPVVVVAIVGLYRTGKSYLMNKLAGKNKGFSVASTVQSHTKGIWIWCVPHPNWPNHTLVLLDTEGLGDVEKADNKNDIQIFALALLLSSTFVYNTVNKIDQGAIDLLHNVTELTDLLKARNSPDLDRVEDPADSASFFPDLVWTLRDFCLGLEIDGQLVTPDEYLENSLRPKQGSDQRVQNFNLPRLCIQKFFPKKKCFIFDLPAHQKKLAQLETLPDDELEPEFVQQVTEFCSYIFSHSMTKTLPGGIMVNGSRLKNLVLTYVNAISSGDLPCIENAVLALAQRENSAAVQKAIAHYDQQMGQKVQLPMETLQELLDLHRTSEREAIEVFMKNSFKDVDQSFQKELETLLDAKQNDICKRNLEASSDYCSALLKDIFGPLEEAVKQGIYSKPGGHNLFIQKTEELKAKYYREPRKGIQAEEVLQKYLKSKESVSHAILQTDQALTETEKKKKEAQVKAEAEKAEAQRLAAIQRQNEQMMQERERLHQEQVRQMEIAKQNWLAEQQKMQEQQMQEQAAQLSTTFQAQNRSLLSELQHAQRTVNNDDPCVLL

[4] = target: T4, non-farnesylated GBP1 (guanylate binding protein 1) (human), P32455; assay: dynamic light scattering; conditions: remark: other sources report otherwise
T4 chain: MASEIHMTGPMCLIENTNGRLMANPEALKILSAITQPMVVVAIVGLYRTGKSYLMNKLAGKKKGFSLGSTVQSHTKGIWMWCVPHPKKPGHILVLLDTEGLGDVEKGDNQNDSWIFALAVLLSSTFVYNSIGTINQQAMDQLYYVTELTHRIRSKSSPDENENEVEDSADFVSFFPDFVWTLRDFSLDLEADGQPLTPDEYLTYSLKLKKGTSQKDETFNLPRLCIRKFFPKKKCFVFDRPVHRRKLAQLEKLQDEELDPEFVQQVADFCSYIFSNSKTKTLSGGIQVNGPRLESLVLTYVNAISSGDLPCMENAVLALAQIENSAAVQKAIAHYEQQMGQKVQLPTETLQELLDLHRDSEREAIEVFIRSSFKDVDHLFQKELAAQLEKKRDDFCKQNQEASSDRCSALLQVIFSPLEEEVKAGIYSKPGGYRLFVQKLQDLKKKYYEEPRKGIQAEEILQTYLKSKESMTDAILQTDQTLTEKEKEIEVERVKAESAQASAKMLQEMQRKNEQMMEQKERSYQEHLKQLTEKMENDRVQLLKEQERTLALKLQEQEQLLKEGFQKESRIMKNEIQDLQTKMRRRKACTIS

B1: geranylgeranylated GBP2 (guanylate binding protein 2) (natural protein, human, UniProt P32456 1-591, looked up)
chain: MAPEINLPGPMSLIDNTKGQLVVNPEALKILSAITQPVVVVAIVGLYRTGKSYLMNKLAGKKNGFSLGSTVKSHTKGIWMWCVPHPKKPEHTLVLLDTEGLGDIEKGDNENDSWIFALAILLSSTFVYNSMGTINQQAMDQLHYVTELTDRIKANSSPGNNSVDDSADFVSFFPAFVWTLRDFTLELEVDGEPITADDYLELSLKLRKGTDKKSKSFNDPRLCIRKFFPKRKCFVFDWPAPKKYLAHLEQLKEEELNPDFIEQVAEFCSYILSHSNVKTLSGGIPVNGPRLESLVLTYVNAISSGDLPCMENAVLALAQIENSAAVEKAIAHYEQQMGQKVQLPTETLQELLDLHRDSEREAIEVFMKNSFKDVDQMFQRKLGAQLEARRDDFCKQNSKASSDCCMALLQDIFGPLEEDVKQGTFSKPGGYRLFTQKLQELKNKYYQVPRKGIQAKEVLKKYLESKEDVADALLQTDQSLSEKEKAIEVERIKAESAEAAKKMLEEIQKKNEEMMEQKEKSYQEHVKQLTEKMERDRAQLMAEQEKTLALKLQEQERLLKEGFENESKRLQKDIWDIQMRSKSLEPICNIL
modifications: geranylgeranylated in vitro (C-terminal geranylgeranyl moiety)
binding result (dynamic light scattering): binds | binding result [1]: binds

B2: non-geranylgeranylated GBP2 (guanylate binding protein 2) (natural protein, human, UniProt P32456 1-591, looked up)
chain: MAPEINLPGPMSLIDNTKGQLVVNPEALKILSAITQPVVVVAIVGLYRTGKSYLMNKLAGKKNGFSLGSTVKSHTKGIWMWCVPHPKKPEHTLVLLDTEGLGDIEKGDNENDSWIFALAILLSSTFVYNSMGTINQQAMDQLHYVTELTDRIKANSSPGNNSVDDSADFVSFFPAFVWTLRDFTLELEVDGEPITADDYLELSLKLRKGTDKKSKSFNDPRLCIRKFFPKRKCFVFDWPAPKKYLAHLEQLKEEELNPDFIEQVAEFCSYILSHSNVKTLSGGIPVNGPRLESLVLTYVNAISSGDLPCMENAVLALAQIENSAAVEKAIAHYEQQMGQKVQLPTETLQELLDLHRDSEREAIEVFMKNSFKDVDQMFQRKLGAQLEARRDDFCKQNSKASSDCCMALLQDIFGPLEEDVKQGTFSKPGGYRLFTQKLQELKNKYYQVPRKGIQAKEVLKKYLESKEDVADALLQTDQSLSEKEKAIEVERIKAESAEAAKKMLEEIQKKNEEMMEQKEKSYQEHVKQLTEKMERDRAQLMAEQEKTLALKLQEQERLLKEGFENESKRLQKDIWDIQMRSKSLEPICNIL
stoichiometry N (dynamic light scattering): 2

B3: non-geranylgeranylated GBP5 (guanylate binding protein 5), Q96PP8 1-586 (natural protein)
chain: MALEIHMSDPMCLIENFNEQLKVNQEALEILSAITQPVVVVAIVGLYRTGKSYLMNKLAGKNKGFSVASTVQSHTKGIWIWCVPHPNWPNHTLVLLDTEGLGDVEKADNKNDIQIFALALLLSSTFVYNTVNKIDQGAIDLLHNVTELTDLLKARNSPDLDRVEDPADSASFFPDLVWTLRDFCLGLEIDGQLVTPDEYLENSLRPKQGSDQRVQNFNLPRLCIQKFFPKKKCFIFDLPAHQKKLAQLETLPDDELEPEFVQQVTEFCSYIFSHSMTKTLPGGIMVNGSRLKNLVLTYVNAISSGDLPCIENAVLALAQRENSAAVQKAIAHYDQQMGQKVQLPMETLQELLDLHRTSEREAIEVFMKNSFKDVDQSFQKELETLLDAKQNDICKRNLEASSDYCSALLKDIFGPLEEAVKQGIYSKPGGHNLFIQKTEELKAKYYREPRKGIQAEEVLQKYLKSKESVSHAILQTDQALTETEKKKKEAQVKAEAEKAEAQRLAAIQRQNEQMMQERERLHQEQVRQMEIAKQNWLAEQQKMQEQQMQEQAAQLSTTFQAQNRSLLSELQHAQRTVNNDDPCVLL
stoichiometry N [2]: 2

B4: geranylgeranylated GBP5 (guanylate binding protein 5) (natural protein, human, UniProt Q96PP8 1-586, looked up)
chain: MALEIHMSDPMCLIENFNEQLKVNQEALEILSAITQPVVVVAIVGLYRTGKSYLMNKLAGKNKGFSVASTVQSHTKGIWIWCVPHPNWPNHTLVLLDTEGLGDVEKADNKNDIQIFALALLLSSTFVYNTVNKIDQGAIDLLHNVTELTDLLKARNSPDLDRVEDPADSASFFPDLVWTLRDFCLGLEIDGQLVTPDEYLENSLRPKQGSDQRVQNFNLPRLCIQKFFPKKKCFIFDLPAHQKKLAQLETLPDDELEPEFVQQVTEFCSYIFSHSMTKTLPGGIMVNGSRLKNLVLTYVNAISSGDLPCIENAVLALAQRENSAAVQKAIAHYDQQMGQKVQLPMETLQELLDLHRTSEREAIEVFMKNSFKDVDQSFQKELETLLDAKQNDICKRNLEASSDYCSALLKDIFGPLEEAVKQGIYSKPGGHNLFIQKTEELKAKYYREPRKGIQAEEVLQKYLKSKESVSHAILQTDQALTETEKKKKEAQVKAEAEKAEAQRLAAIQRQNEQMMQERERLHQEQVRQMEIAKQNWLAEQQKMQEQQMQEQAAQLSTTFQAQNRSLLSELQHAQRTVNNDDPCVLL
modifications: geranylgeranylated in vitro (C-terminal geranylgeranyl moiety)
binding result [1]: binds

B5: geranylgeranylated GBP5 (guanylate binding protein 5), Q96PP8 1-586 (natural protein)
chain: MALEIHMSDPMCLIENFNEQLKVNQEALEILSAITQPVVVVAIVGLYRTGKSYLMNKLAGKNKGFSVASTVQSHTKGIWIWCVPHPNWPNHTLVLLDTEGLGDVEKADNKNDIQIFALALLLSSTFVYNTVNKIDQGAIDLLHNVTELTDLLKARNSPDLDRVEDPADSASFFPDLVWTLRDFCLGLEIDGQLVTPDEYLENSLRPKQGSDQRVQNFNLPRLCIQKFFPKKKCFIFDLPAHQKKLAQLETLPDDELEPEFVQQVTEFCSYIFSHSMTKTLPGGIMVNGSRLKNLVLTYVNAISSGDLPCIENAVLALAQRENSAAVQKAIAHYDQQMGQKVQLPMETLQELLDLHRTSEREAIEVFMKNSFKDVDQSFQKELETLLDAKQNDICKRNLEASSDYCSALLKDIFGPLEEAVKQGIYSKPGGHNLFIQKTEELKAKYYREPRKGIQAEEVLQKYLKSKESVSHAILQTDQALTETEKKKKEAQVKAEAEKAEAQRLAAIQRQNEQMMQERERLHQEQVRQMEIAKQNWLAEQQKMQEQQMQEQAAQLSTTFQAQNRSLLSELQHAQRTVNNDDPCVLL
modifications: here or on the partner: geranylgeranylated in vitro (C-terminal geranylgeranyl moiety); geranylgeranylated in vitro (C-terminal geranylgeranyl moiety)
stoichiometry N [3]: 2

B6: non-farnesylated GBP1 (guanylate binding protein 1), P32455 1-592 (natural protein)
chain: MASEIHMTGPMCLIENTNGRLMANPEALKILSAITQPMVVVAIVGLYRTGKSYLMNKLAGKKKGFSLGSTVQSHTKGIWMWCVPHPKKPGHILVLLDTEGLGDVEKGDNQNDSWIFALAVLLSSTFVYNSIGTINQQAMDQLYYVTELTHRIRSKSSPDENENEVEDSADFVSFFPDFVWTLRDFSLDLEADGQPLTPDEYLTYSLKLKKGTSQKDETFNLPRLCIRKFFPKKKCFVFDRPVHRRKLAQLEKLQDEELDPEFVQQVADFCSYIFSNSKTKTLSGGIQVNGPRLESLVLTYVNAISSGDLPCMENAVLALAQIENSAAVQKAIAHYEQQMGQKVQLPTETLQELLDLHRDSEREAIEVFIRSSFKDVDHLFQKELAAQLEKKRDDFCKQNQEASSDRCSALLQVIFSPLEEEVKAGIYSKPGGYRLFVQKLQDLKKKYYEEPRKGIQAEEILQTYLKSKESMTDAILQTDQTLTEKEKEIEVERVKAESAQASAKMLQEMQRKNEQMMEQKERSYQEHLKQLTEKMENDRVQLLKEQERTLALKLQEQEQLLKEGFQKESRIMKNEIQDLQTKMRRRKACTIS
stoichiometry N [4]: 2
